Measured values taken from publication PMC6331917.

Tested on: NS5BΔ21 (viral RNA-dependent RNA polymerase) (Hepatitis C virus)
Test: competition (filter binding)
Conditions: 5 mM HEPES pH 7.9, 2 mM MgCl2, 25 mM KCl, 37 °C, 30 min; nitrocellulose dot-blot filter binding. Aptamer:CRE Kd values (Table 2) are RNA-RNA and not listed.

## HCV-CRE194
  binding signal: 75.4 % complex
